Assay results from PMC10065799, “High-throughput profiling of sequence recognition by tyrosine kinases and SH2 domains using bacterial peptide display” (eLife, 2023).

Legend:
[1] = target: c-Src kinase domain (Homo sapiens, UniProt P12931); test: RP-HPLC assay to measure peptide phosphorylation kinetics; assay type: biochemical; conditions: purified peptide substrate
[2] = system: FGFR1 kinase domain; test: LC-MS assay of intact SHP2 protein phosphorylation; assay type: biochemical, human; conditions: SHP2 10 μM, kinase 1 μM, 1 hr, 37 °C, 2 to 3 measurements
Method: (§1) The same protocol used to express and purify SH2 domains, excluding co-expression of BirA and addition of biotin, was applied to the expression and purification of the SHP2 variants.
(§2) To pre-activate the kinases, 1 μM of each purified kinase domain was preincubated at 37 °C for 30 min in the same buffer conditions used in the kinase domain peptide display screen, with 1 mM ATP. The reaction of the kinase with SHP2 was initiated with the addition of 10 μM SHP2, and the mixture was incubated in 37 °C for 1 hr. To terminate the reaction, the mixture was quenched with 200 mM EDTA. The reaction mixture was diluted 3:2 in water and injected onto a BEH C8 column (Waters) on a UPLC-MS system (Xevo QToF, Waters). Reverse-phase liquid chromatography was carried out at 0.3 mL/min with solvents A (H2O, 0.1% (v/v) formic acid) and B (acetonitrile, 0.1% (v/v) formic acid). Proteins were eluted over a gradient of 5–95% B for 8.5 min. The protein peak on the chromatogram was deconvoluted using the MaxEnt1 algorithm from 32,000–65,000 Da with a resolution of 1 Da/channel over 30 iterations. Peaks were chosen according to the theoretical MW of the protein within a range of 5 Da, and integrated for the signal intensity.

[3] = system: Fyn kinase domain; test: LC-MS assay of intact SHP2 protein phosphorylation; assay type: biochemical, human; conditions: SHP2 10 μM, kinase 1 μM, 1 hr, 37 °C, 2 to 3 measurements
Method: as §1, §2

Row | Phosphorylation Rate [1] [s⁻¹] | phosphorylation of intact SHP2 by FGFR1 [2] | phosphorylation of intact SHP2 by Fyn [3] | Molecule
1 | 0.156 | – | – | Ac-AGQEEYSAMRD-NH2 [HRAS-Y64]
2 | – | fastest | slowest | SHP2 wild-type: human full-length SHP2 (residues 1–526; C459E) (protein, UniProt Q06124 2-593, looked up, variant C459E) Tyrosine-protein phosphatase …: TSRRWFHPNITGVEAENLLLTRGVDGSFLARPSKSNPGDFTLSVRRNGAVTHIKIQNTGDYYDLYGGEKFATLAELVQYYMEHHGQLKEKNGDVIELKYPLNCADPTSERWFHGHLSGKEAEKLLTEKGKHGSFLVRESQSHPGDFVLSVRTGDDKGESNDGKSKVTHVMIRCQELKYDVGGGERFDSLTDLVEHYKKNPMVETLGTVLQLKQPLNTTRINAAEIESRVRELSKLAETTDKVKQGFWEEFETLQQQECKLLYSRKEGQRQENKNKNRYKNILPFDHTRVVLHDGDPNEPVSDYINANIIMPEFETKCNNSKPKKSYIATQGCLQNTVNDFWRMVFQENSRVIVMTTKEVERGKSKCVKYWPDEYALKEYGVMRVRNVKESAAHDYTLRELKLSKVGQGNTERTVWQYHFRTWPDHGVPSDPGGVLDFLEEVHHKQESIMDAGPVVVHESAGIGRTGTFIVIDILIDIIREKGVDCDIDVPKTIQMVRSQRSGMVQTEAQYRFIYMAVQHYIETLQRRIEEEQKSKRKGHEYTNIKYSLADQTSGDQSPLPPCTPTPPCAEMREDSARVYENVGLMQQQKSFR
